Measurements from the supplement of paper PMC9732359.
± gives the uncertainty stated by the source.

Test: protein stability index of a GFP-peptide fusion (yeast GPS) (PSI 1-4); higher = more stable; sorted into four equal gates, so the index is relative within each strain
In short: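 Each library plasmid carries Cherry plus GFP with a tiled 17-residue yeast protein peptide fused downstream, and the pooled library was carried in yeast. Mid-log cultures in leucine-free medium were sorted into four equal gates by GFP/Cherry ratio. Reads from Illumina sequencing of PCR-amplified plasmids from each gate were assigned to strains by barcodes. Per peptide, the protein stability index was computed as the summed products of gate read frequency and gate number.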

Row | Sequence | protein stability index (doa10∆) | protein stability index (pdr5∆) | protein stability index (san1∆) | protein stability index (ubr1∆)
1 | YMRKQVGVGKLNKLYGG [RPS19A] | 2.99 ± 0.16 | 2.48 ± 0.17 | 2.89 ± 0.14 | 3.41 ± 0.12
2 | ELQKSLSLEEVEGHLFE [FAS1] | 3.16 ± 0.11 | 3.32 ± 0.16 | 3.35 ± 0.061 | 3.08 ± 0.098
3 | YALQSVKLPRAFIDERA [RRP43] | – | 1.33 ± 0.17 | 1.3 ± 0.24 | 1.33 ± 0.075
4 | YASKAVPHYNRLDSYKV [RPL25] | 2.11 ± 0.14 | 2.7 ± 0.1 | 2.34 ± 0.12 | 1.47 ± 0.11
5 | TATYNDNMSEEQWLRQF [SNF2] | 3.28 ± 0.092 | 3.33 ± 0.12 | 3.27 ± 0.1 | 3.5 ± 0.089
6 | EFTENELNVDSMDVDDK [ITC1] | 3.18 ± 0.16 | 3.24 ± 0.19 | 3.31 ± 0.11 | 3.25 ± 0.093
7 | SAPPPALPHVEINQVSL [RGR1] | 2.46 ± 0.074 | 2.96 ± 0.11 | 2.48 ± 0.09 | 2.33 ± 0.052
8 | YGFKQEIFDVTSNGLKK [FAS1] | 2.98 ± 0.12 | 3.3 ± 0.083 | 2.61 ± 0.085 | 2.89 ± 0.047
9 | TNAAFPFHDPEARLFNI [ECM29] | 3.04 ± 0.1 | 2.87 ± 0.12 | 2.42 ± 0.11 | 2.38 ± 0.072
10 | AIRRDARYNWICDPVHK [RPL15A] | 2.71 ± 0.1 | 3.37 ± 0.12 | 3.25 ± 0.11 | 3.18 ± 0.076
11 | TDIEEGMRVGVDRSKYN [RPT1] | 3.13 ± 0.14 | 3.34 ± 0.27 | 3.07 ± 0.1 | 3.13 ± 0.15
12 | AESEAITVTAKQQPTMQ [SWI3] | 3.14 ± 0.083 | 3.22 ± 0.063 | 2.88 ± 0.071 | 3.04 ± 0.035
13 | SLKALASKYNCDKSVCR [RPL40A] | 3.08 ± 0.069 | 2.97 ± 0.089 | 3.12 ± 0.054 | 2.94 ± 0.087
14 | AGKQLEDGRTLSDYNIQ [RPS31] | 2.81 ± 0.11 | 2.94 ± 0.16 | 3.6 ± 0.094 | 3.15 ± 0.1
15 | LNEMLNTRKNMSISLES [DIS3] | 2.66 ± 0.053 | 2.91 ± 0.066 | 2.63 ± 0.069 | 2.95 ± 0.051
16 | EINSEDYDNKTKLIGVL [SRP68] | 3.2 ± 0.15 | 3.04 ± 0.18 | 3.25 ± 0.076 | 3.02 ± 0.12
17 | LKHVLQLIFRQQTGLVD [SNU114] | 1.23 ± 0.075 | 1.58 ± 0.076 | 1.68 ± 0.12 | 1.2 ± 0.049
18 | AELIPELYSFQQLVDSE [SNF12] | 1.79 ± 0.08 | 2.12 ± 0.067 | 2.67 ± 0.057 | 1.87 ± 0.047
19 | LNISPFTFGLTVVQVYD [RPP0] | 1.31 ± 0.043 | 1.61 ± 0.052 | 1.55 ± 0.072 | 1.2 ± 0.044
20 | PKNLLKKFIEISDVKIQ [PRP8] | 1.76 ± 0.064 | 1.88 ± 0.067 | 1.76 ± 0.13 | 2.26 ± 0.05
21 | RPKCGDCGSALQGISTL [RPL34A] | 1.34 ± 0.08 | 1.42 ± 0.067 | 1.32 ± 0.1 | 1.41 ± 0.052
22 | WLLHNGFSTGIGDTIAD [RPO21] | 3.11 ± 0.16 | 3.24 ± 0.17 | 3.26 ± 0.093 | 3.06 ± 0.15
23 | KLYTFLARRTDAPFNKV [RPL18A] | 1.78 ± 0.052 | 1.65 ± 0.042 | 1.97 ± 0.079 | 1.89 ± 0.068
24 | NNSGNDNNNTTNNDSNN [MED2] | 3.13 ± 0.035 | 3.27 ± 0.033 | 3.133 ± 0.023 | 3.092 ± 0.03
25 | GAIAYNQFKRIDTLLYL [RET1] | 1.4 ± 0.1 | 1.42 ± 0.1 | 1.48 ± 0.14 | 1.54 ± 0.066

Row | Sequence | protein stability index (doa10∆) | protein stability index (pdr5∆) | protein stability index (san1∆) | protein stability index (ubr1∆)
26 | TQLDKLRPRKDSKDGTT [SMB1] | 2.26 ± 0.28 | 2.15 ± 0.28 | – | 1.77 ± 0.2
27 | EFLPLSLHILMIFWNDI [SRB8] | 1.36 ± 0.037 | 1.34 ± 0.04 | 1.35 ± 0.062 | 1.89 ± 0.036
28 | TYASVTGLFTLERTDLK [RPN7] | 3.43 ± 0.23 | – | – | 2.62 ± 0.21
29 | TISSKPDILATDLIREK [YCS4] | – | 2.54 ± 0.25 | 3.4 ± 0.26 | 3.09 ± 0.066
30 | RSIRGSFTSQGTISIQL [MTR3] | 2.78 ± 0.067 | 2.73 ± 0.057 | 2.77 ± 0.066 | 2.61 ± 0.041
31 | DSEGSIKQTSDESTIKR [ECM29] | 3.43 ± 0.11 | 3.56 ± 0.085 | 3.43 ± 0.068 | 3.41 ± 0.063
32 | KPGRMPFNFTVTLFQMA [CDC53] | 1.65 ± 0.039 | 1.99 ± 0.043 | 2.17 ± 0.08 | 2.05 ± 0.051
33 | CLEACSFILSSLEDPQV [YDL116W/NUP84] | 2.68 ± 0.048 | 2.71 ± 0.054 | 2.87 ± 0.038 | 2.75 ± 0.042
34 | HWPLNWYLILSIISSKT [RGR1] | 1.57 ± 0.1 | 1.5 ± 0.08 | 1.4 ± 0.21 | 1.18 ± 0.067
35 | LIQLGVKPLESSAKRSK [SRP72] | 3.11 ± 0.073 | 2.97 ± 0.11 | 2.56 ± 0.12 | 2.88 ± 0.045
36 | LLFWTDPRNLVNQTGST [YCG1] | 2.41 ± 0.065 | 2.66 ± 0.064 | 2.83 ± 0.055 | 2.81 ± 0.038
37 | IGGSDAAFEKRYRVDLL [RPO21] | 3.32 ± 0.074 | 3.39 ± 0.067 | 3.25 ± 0.04 | 3.32 ± 0.053
38 | CNSIINKLGALKTNFET [RPB11] | 2.57 ± 0.089 | 2.42 ± 0.099 | 2.68 ± 0.088 | 3.05 ± 0.17
39 | PQAVTITSIMDDLALPY [ITC1] | 2.85 ± 0.077 | 2.98 ± 0.062 | 2.72 ± 0.059 | 3.02 ± 0.046
40 | KKSEEKLREKVNDVELA [MTW1] | 3.08 ± 0.13 | 3.03 ± 0.13 | 3.05 ± 0.14 | 3.06 ± 0.21
41 | RLFIGDQNNKKMVGLRG [SNF2] | 2.65 ± 0.1 | 2.87 ± 0.085 | 2.36 ± 0.1 | 2.69 ± 0.082
42 | NLDFDPRDVIKGKDFEI [FAS1] | 3.47 ± 0.25 | 2.9 ± 0.29 | 3.32 ± 0.11 | 3.46 ± 0.1
43 | EPIKLEPVKEYTFKTSM [YMR129W/POM152] | 2.22 ± 0.098 | 2.29 ± 0.08 | 1.99 ± 0.17 | –
44 | NKEMHTDLGKDIPFFPS [SSN2] | 2.34 ± 0.062 | 2.01 ± 0.066 | 2.52 ± 0.066 | 2.76 ± 0.055
45 | NSDLEFNTFWDEKGNEI [ARP9] | 3.41 ± 0.08 | 3.25 ± 0.12 | 3.31 ± 0.12 | 3.34 ± 0.077
46 | KDEEETEYFENKQSVSN [DSN1] | 3.46 ± 0.12 | 3.4 ± 0.091 | 3.31 ± 0.085 | 3.53 ± 0.054
47 | LCLTEFENCYLEGNDIH [FAS1] | 3.02 ± 0.089 | 3.26 ± 0.076 | 3.2 ± 0.13 | 2.95 ± 0.1
48 | SDKTIVPTSIQTKRWPT [SIN4] | 2.32 ± 0.059 | 2.6 ± 0.055 | 2.35 ± 0.054 | 2.77 ± 0.048
49 | LTIKDIVLGVKDLQENL [RPO21] | – | 2.86 ± 0.29 | 3.6 ± 0.048 | –
50 | KVLGVKDMSPILGELKR [LRP1] | 2.71 ± 0.089 | 3.14 ± 0.068 | 2.88 ± 0.065 | 3.12 ± 0.045
